Assay results taken from IntAct's records for PubMed 21240272.

B1: F-box-like/WD repeat-containing protein TBL1X (Homo sapiens), O60907-2 (parent)
chain: MSITSDEVNFLVYRYLQESGFSHSAFTFGIESHISQSNINGTLVPPAALISILQKGLQYVEAEISINEDGTVFDGRPIESLSLIDAVMPDVVQTRQQAFREKLAQQQASAAAAAAAATAAATAATTTSAGVSHQNPSKNREATVNGEENRAHSVNNHAKPMEIDGEVEIPSSKATVLRGHESEVFICAWNPVSDLLASGSGDSTARIWNLNENSNGGSTQLVLRHCIREGGHDVPSNKDVTSLDWNTNGTLLATGSYDGFARIWTEDGNLASTLGQHKGPIFALKWNRKGNYILSAGVDKTTIIWDAHTGEAKQQFPFHSAPALDVDWQNNTTFASCSTDMCIHVCRLGCDRPVKTFQGHTNEVNAIKWDPSGMLLASCSDDMTLKIWSMKQEVCIHDLQAHNKEIYTIKWSPTGPATSNPNSNIMLASASFDSTVRLWDIERGVCTHTLTKHQEPVYSVAFSPDGKYLASGSFDKCVHIWNTQSGNLVHSYRGTGGIFEVCWNARGDKVGASASDGSVCVLDLRK
B2: G protein pathway suppressor 2 (Homo sapiens), Q13227 (parent)
chain: MPALLERPKLSNAMARALHRHIMMERERKRQEEEEVDKMMEQKMKEEQERRKKKEMEERMSLEETKEQILKLEEKLLALQEEKHQLFLQLKKVLHEEEKRRRKEQSDLTTLTSAAYQQSLTVHTGTHLLSMQGSPGGHNRPGTLMAADRAKQMFGPQVLTTRHYVGSAAAFAGTPEHGQFQGSPGGAYGTAQPPPHYGPTQPAYSPSQQLRAPSAFPAVQYLSQPQPQPYAVHGHFQPTQTGFLQPGGALSLQKQMEHANQQTGFSDSSSLRPMHPQALHPAPGLLASPQLPVQMQPAGKSGFAATSQPGPRLPFIQHSQNPRFYHK
partner: B1 chain

Variants of: B1
Conditions: with ncor2_human NCOR2, Q9Y618
ncor2_human NCOR2, Q9Y618, sequence (Q9Y618 whole entry): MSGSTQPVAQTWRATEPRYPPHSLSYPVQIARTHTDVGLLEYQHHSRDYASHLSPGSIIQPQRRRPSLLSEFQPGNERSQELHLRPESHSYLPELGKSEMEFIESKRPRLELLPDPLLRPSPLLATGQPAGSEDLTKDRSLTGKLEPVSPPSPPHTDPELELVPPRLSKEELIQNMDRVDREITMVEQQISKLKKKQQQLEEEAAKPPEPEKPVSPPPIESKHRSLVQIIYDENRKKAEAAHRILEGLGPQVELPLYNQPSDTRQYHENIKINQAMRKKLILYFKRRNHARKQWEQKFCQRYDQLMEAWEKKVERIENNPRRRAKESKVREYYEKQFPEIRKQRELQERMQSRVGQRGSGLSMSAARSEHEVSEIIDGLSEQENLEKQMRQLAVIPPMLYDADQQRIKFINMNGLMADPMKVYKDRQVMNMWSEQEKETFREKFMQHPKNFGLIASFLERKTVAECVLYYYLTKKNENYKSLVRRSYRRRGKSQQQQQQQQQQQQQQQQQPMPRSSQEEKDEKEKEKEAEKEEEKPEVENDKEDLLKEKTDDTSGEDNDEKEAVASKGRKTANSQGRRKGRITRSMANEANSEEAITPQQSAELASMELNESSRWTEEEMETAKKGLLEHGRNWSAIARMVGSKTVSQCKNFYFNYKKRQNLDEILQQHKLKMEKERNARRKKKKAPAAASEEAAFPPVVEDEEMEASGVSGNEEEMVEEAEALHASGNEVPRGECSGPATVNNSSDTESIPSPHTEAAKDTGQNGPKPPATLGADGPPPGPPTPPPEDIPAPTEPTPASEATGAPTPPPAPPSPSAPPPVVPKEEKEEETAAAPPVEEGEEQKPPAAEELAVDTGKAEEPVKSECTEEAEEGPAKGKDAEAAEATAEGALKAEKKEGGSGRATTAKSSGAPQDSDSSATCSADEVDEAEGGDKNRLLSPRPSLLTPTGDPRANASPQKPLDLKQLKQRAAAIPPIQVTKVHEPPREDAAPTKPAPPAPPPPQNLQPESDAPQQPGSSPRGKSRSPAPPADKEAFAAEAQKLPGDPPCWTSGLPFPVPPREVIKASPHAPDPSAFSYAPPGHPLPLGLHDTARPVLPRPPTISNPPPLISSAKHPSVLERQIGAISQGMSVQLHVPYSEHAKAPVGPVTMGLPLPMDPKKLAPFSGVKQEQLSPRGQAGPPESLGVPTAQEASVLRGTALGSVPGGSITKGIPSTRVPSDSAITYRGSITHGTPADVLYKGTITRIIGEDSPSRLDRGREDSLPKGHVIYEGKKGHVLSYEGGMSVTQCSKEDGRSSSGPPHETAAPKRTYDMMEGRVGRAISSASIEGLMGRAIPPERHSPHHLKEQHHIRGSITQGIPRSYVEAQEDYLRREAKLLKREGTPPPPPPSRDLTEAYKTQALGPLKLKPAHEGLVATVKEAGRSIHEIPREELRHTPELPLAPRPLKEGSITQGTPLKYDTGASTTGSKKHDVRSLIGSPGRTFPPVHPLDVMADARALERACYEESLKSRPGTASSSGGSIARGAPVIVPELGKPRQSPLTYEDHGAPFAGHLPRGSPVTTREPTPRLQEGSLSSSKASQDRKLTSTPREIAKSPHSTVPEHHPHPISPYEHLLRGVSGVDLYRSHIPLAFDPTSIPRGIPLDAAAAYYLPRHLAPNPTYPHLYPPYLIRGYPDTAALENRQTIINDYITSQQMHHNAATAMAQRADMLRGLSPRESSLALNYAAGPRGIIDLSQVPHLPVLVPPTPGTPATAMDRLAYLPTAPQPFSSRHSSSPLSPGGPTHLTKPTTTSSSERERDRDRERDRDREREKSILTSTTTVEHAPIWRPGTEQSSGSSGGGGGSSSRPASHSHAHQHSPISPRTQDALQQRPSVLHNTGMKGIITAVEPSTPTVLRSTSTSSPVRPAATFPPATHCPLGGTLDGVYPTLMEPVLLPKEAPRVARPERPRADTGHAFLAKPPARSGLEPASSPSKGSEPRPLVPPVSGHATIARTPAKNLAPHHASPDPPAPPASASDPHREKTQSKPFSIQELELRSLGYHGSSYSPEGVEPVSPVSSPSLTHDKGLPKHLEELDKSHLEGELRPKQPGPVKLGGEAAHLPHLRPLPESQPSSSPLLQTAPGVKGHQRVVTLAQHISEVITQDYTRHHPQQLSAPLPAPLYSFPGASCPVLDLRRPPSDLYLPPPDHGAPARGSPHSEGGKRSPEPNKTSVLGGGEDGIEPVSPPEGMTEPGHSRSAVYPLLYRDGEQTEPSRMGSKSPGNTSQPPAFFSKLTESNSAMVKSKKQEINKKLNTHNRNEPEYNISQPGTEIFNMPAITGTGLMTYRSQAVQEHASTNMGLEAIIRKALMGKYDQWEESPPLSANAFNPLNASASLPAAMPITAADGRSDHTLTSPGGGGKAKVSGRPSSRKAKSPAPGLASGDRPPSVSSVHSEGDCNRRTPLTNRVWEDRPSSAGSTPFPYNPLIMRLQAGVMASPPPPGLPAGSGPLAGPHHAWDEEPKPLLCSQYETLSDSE

effect of a mutation on the interaction | Variant
decreasing interaction strength | MSITSDEVNFLVYRYLQESGFSHSAFTFGIESHISQSNINGTLVPPAALISILQKGQQYVEAEISINEDGTVFDGRPIESLSLIDAVMPDVVQTRQQAFREKLAQQQASAAAAAAAATAAATAATTTSAGVSHQNPSKNREATVNGEENRAHSVNNHAKPMEIDGEVEIPSSKATVLRGHESEVFICAWNPVSDLLASGSGDSTARIWNLNENSNGGSTQLVLRHCIREGGHDVPSNKDVTSLDWNTNGTLLATGSYDGFARIWTEDGNLASTLGQHKGPIFALKWNRKGNYILSAGVDKTTIIWDAHTGEAKQQFPFHSAPALDVDWQNNTTFASCSTDMCIHVCRLGCDRPVKTFQGHTNEVNAIKWDPSGMLLASCSDDMTLKIWSMKQEVCIHDLQAHNKEIYTIKWSPTGPATSNPNSNIMLASASFDSTVRLWDIERGVCTHTLTKHQEPVYSVAFSPDGKYLASGSFDKCVHIWNTQSGNLVHSYRGTGGIFEVCWNARGDKVGASASDGSVCVLDLRK [L57Q]
decreasing interaction | MSITSDEVNFLVYRYLQESGFSHSAFTFGIESHISQSNINGTLVGPAALISILQKGLQYVEAEISINEDGTVFDGRPIESLSLIDAVMPDVVQTRQQAFREKLAQQQASAAAAAAAATAAATAATTTSAGVSHQNPSKNREATVNGEENRAHSVNNHAKPMEIDGEVEIPSSKATVLRGHESEVFICAWNPVSDLLASGSGDSTARIWNLNENSNGGSTQLVLRHCIREGGHDVPSNKDVTSLDWNTNGTLLATGSYDGFARIWTEDGNLASTLGQHKGPIFALKWNRKGNYILSAGVDKTTIIWDAHTGEAKQQFPFHSAPALDVDWQNNTTFASCSTDMCIHVCRLGCDRPVKTFQGHTNEVNAIKWDPSGMLLASCSDDMTLKIWSMKQEVCIHDLQAHNKEIYTIKWSPTGPATSNPNSNIMLASASFDSTVRLWDIERGVCTHTLTKHQEPVYSVAFSPDGKYLASGSFDKCVHIWNTQSGNLVHSYRGTGGIFEVCWNARGDKVGASASDGSVCVLDLRK [P45G]

More lines, now with the values behind:

Variant | effect of a mutation on the interaction
MSITSDEVNFLVYRYLQESGFSHSAFTFGIESHISQSNINGTLVPPAALISILQKGLQYNEAEISINEDGTVFDGRPIESLSLIDAVMPDVVQTRQQAFREKLAQQQASAAAAAAAATAAATAATTTSAGVSHQNPSKNREATVNGEENRAHSVNNHAKPMEIDGEVEIPSSKATVLRGHESEVFICAWNPVSDLLASGSGDSTARIWNLNENSNGGSTQLVLRHCIREGGHDVPSNKDVTSLDWNTNGTLLATGSYDGFARIWTEDGNLASTLGQHKGPIFALKWNRKGNYILSAGVDKTTIIWDAHTGEAKQQFPFHSAPALDVDWQNNTTFASCSTDMCIHVCRLGCDRPVKTFQGHTNEVNAIKWDPSGMLLASCSDDMTLKIWSMKQEVCIHDLQAHNKEIYTIKWSPTGPATSNPNSNIMLASASFDSTVRLWDIERGVCTHTLTKHQEPVYSVAFSPDGKYLASGSFDKCVHIWNTQSGNLVHSYRGTGGIFEVCWNARGDKVGASASDGSVCVLDLRK [V60N] | disrupting interaction
MSITSDEVNFLVYRYLQESGFSHSAFTFGIESHISQSNINGTLVPPAALISILQKGAQYVEAEISINEDGTVFDGRPIESLSLIDAVMPDVVQTRQQAFREKLAQQQASAAAAAAAATAAATAATTTSAGVSHQNPSKNREATVNGEENRAHSVNNHAKPMEIDGEVEIPSSKATVLRGHESEVFICAWNPVSDLLASGSGDSTARIWNLNENSNGGSTQLVLRHCIREGGHDVPSNKDVTSLDWNTNGTLLATGSYDGFARIWTEDGNLASTLGQHKGPIFALKWNRKGNYILSAGVDKTTIIWDAHTGEAKQQFPFHSAPALDVDWQNNTTFASCSTDMCIHVCRLGCDRPVKTFQGHTNEVNAIKWDPSGMLLASCSDDMTLKIWSMKQEVCIHDLQAHNKEIYTIKWSPTGPATSNPNSNIMLASASFDSTVRLWDIERGVCTHTLTKHQEPVYSVAFSPDGKYLASGSFDKCVHIWNTQSGNLVHSYRGTGGIFEVCWNARGDKVGASASDGSVCVLDLRK [L57A] | decreasing interaction strength
MSITSDEVNFLVYRYLQESGFSHSAFTFGIESHISQSNANGTLVPPAALISILQKGLQYVEAEISINEDGTVFDGRPIESLSLIDAVMPDVVQTRQQAFREKLAQQQASAAAAAAAATAAATAATTTSAGVSHQNPSKNREATVNGEENRAHSVNNHAKPMEIDGEVEIPSSKATVLRGHESEVFICAWNPVSDLLASGSGDSTARIWNLNENSNGGSTQLVLRHCIREGGHDVPSNKDVTSLDWNTNGTLLATGSYDGFARIWTEDGNLASTLGQHKGPIFALKWNRKGNYILSAGVDKTTIIWDAHTGEAKQQFPFHSAPALDVDWQNNTTFASCSTDMCIHVCRLGCDRPVKTFQGHTNEVNAIKWDPSGMLLASCSDDMTLKIWSMKQEVCIHDLQAHNKEIYTIKWSPTGPATSNPNSNIMLASASFDSTVRLWDIERGVCTHTLTKHQEPVYSVAFSPDGKYLASGSFDKCVHIWNTQSGNLVHSYRGTGGIFEVCWNARGDKVGASASDGSVCVLDLRK [I39A] | decreasing interaction

Variants of: B1
Conditions: with gps2_human GPS2, Q13227

effect of a mutation on the interaction | Variant
disrupting interaction | MSITSDEVNFLVYRYLQESGFSHSAFTFGIESHISQSNINGTLVPPAALISILQKGLQYNEAEISINEDGTVFDGRPIESLSLIDAVMPDVVQTRQQAFREKLAQQQASAAAAAAAATAAATAATTTSAGVSHQNPSKNREATVNGEENRAHSVNNHAKPMEIDGEVEIPSSKATVLRGHESEVFICAWNPVSDLLASGSGDSTARIWNLNENSNGGSTQLVLRHCIREGGHDVPSNKDVTSLDWNTNGTLLATGSYDGFARIWTEDGNLASTLGQHKGPIFALKWNRKGNYILSAGVDKTTIIWDAHTGEAKQQFPFHSAPALDVDWQNNTTFASCSTDMCIHVCRLGCDRPVKTFQGHTNEVNAIKWDPSGMLLASCSDDMTLKIWSMKQEVCIHDLQAHNKEIYTIKWSPTGPATSNPNSNIMLASASFDSTVRLWDIERGVCTHTLTKHQEPVYSVAFSPDGKYLASGSFDKCVHIWNTQSGNLVHSYRGTGGIFEVCWNARGDKVGASASDGSVCVLDLRK [V60N]
decreasing interaction strength | MSITSDEVNFLVYRYLQESGFSHSAFTFGIESHISQSNINGTLVPPAALISILQKGAQYVEAEISINEDGTVFDGRPIESLSLIDAVMPDVVQTRQQAFREKLAQQQASAAAAAAAATAAATAATTTSAGVSHQNPSKNREATVNGEENRAHSVNNHAKPMEIDGEVEIPSSKATVLRGHESEVFICAWNPVSDLLASGSGDSTARIWNLNENSNGGSTQLVLRHCIREGGHDVPSNKDVTSLDWNTNGTLLATGSYDGFARIWTEDGNLASTLGQHKGPIFALKWNRKGNYILSAGVDKTTIIWDAHTGEAKQQFPFHSAPALDVDWQNNTTFASCSTDMCIHVCRLGCDRPVKTFQGHTNEVNAIKWDPSGMLLASCSDDMTLKIWSMKQEVCIHDLQAHNKEIYTIKWSPTGPATSNPNSNIMLASASFDSTVRLWDIERGVCTHTLTKHQEPVYSVAFSPDGKYLASGSFDKCVHIWNTQSGNLVHSYRGTGGIFEVCWNARGDKVGASASDGSVCVLDLRK [L57A]
decreasing interaction strength | MSITSDEVNFLVYRYLQESGFSHSAFTFGIESHISQSNINGTLVPPAALISILQKGQQYVEAEISINEDGTVFDGRPIESLSLIDAVMPDVVQTRQQAFREKLAQQQASAAAAAAAATAAATAATTTSAGVSHQNPSKNREATVNGEENRAHSVNNHAKPMEIDGEVEIPSSKATVLRGHESEVFICAWNPVSDLLASGSGDSTARIWNLNENSNGGSTQLVLRHCIREGGHDVPSNKDVTSLDWNTNGTLLATGSYDGFARIWTEDGNLASTLGQHKGPIFALKWNRKGNYILSAGVDKTTIIWDAHTGEAKQQFPFHSAPALDVDWQNNTTFASCSTDMCIHVCRLGCDRPVKTFQGHTNEVNAIKWDPSGMLLASCSDDMTLKIWSMKQEVCIHDLQAHNKEIYTIKWSPTGPATSNPNSNIMLASASFDSTVRLWDIERGVCTHTLTKHQEPVYSVAFSPDGKYLASGSFDKCVHIWNTQSGNLVHSYRGTGGIFEVCWNARGDKVGASASDGSVCVLDLRK [L57Q]

Variants of: B2
Conditions: with TBL1X

effect of a mutation on the interaction | Variant
disrupting interaction | MPALLERPKLSNAMARALAEHAMMERERKRQEEEEVDKMMEQKMKEEQERRKKKEMEERMSLEETKEQILKLEEKLLALQEEKHQLFLQLKKVLHEEEKRRRKEQSDLTTLTSAAYQQSLTVHTGTHLLSMQGSPGGHNRPGTLMAADRAKQMFGPQVLTTRHYVGSAAAFAGTPEHGQFQGSPGGAYGTAQPPPHYGPTQPAYSPSQQLRAPSAFPAVQYLSQPQPQPYAVHGHFQPTQTGFLQPGGALSLQKQMEHANQQTGFSDSSSLRPMHPQALHPAPGLLASPQLPVQMQPAGKSGFAATSQPGPRLPFIQHSQNPRFYHK [H19A;R20E;I22A]
